The text below walks through data of paper PMC5794992.

The target of this assay is BraA.Gα1 (Gα subunit of B. rapa), GAL4 DNA-binding domain fusion (Brassica rapa).
BraA.Gα1 (Gα subunit of B. rapa), GAL4 DNA-binding domain fusion (Brassica rapa), sequence (P18064 other isoform, or with tags, fused parts or gaps): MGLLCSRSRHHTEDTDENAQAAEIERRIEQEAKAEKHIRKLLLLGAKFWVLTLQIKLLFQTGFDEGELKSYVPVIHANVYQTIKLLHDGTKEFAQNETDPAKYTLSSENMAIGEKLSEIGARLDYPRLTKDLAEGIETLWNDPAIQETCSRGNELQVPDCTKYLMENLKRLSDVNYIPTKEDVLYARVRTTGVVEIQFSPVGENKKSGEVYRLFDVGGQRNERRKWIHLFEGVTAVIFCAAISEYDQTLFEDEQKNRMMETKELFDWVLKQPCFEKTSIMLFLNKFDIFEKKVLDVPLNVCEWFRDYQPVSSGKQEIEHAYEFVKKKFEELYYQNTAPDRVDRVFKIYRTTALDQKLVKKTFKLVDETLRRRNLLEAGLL

For the substance “RGS-domain of BraA.RGS2 (C-terminal cytosolic domain containing the RGS-box), GAL4 activation domain fusion (domain or fragment)”, the Km of steady state Pi release (ENZchek) from 1 μM GTP-loaded BraA.Gα1 with 0.1–2.0 μM purified RGS-domain of BraA.RGS2 (His-tagged proteins from E. coli) amounted to 0.311.
“RGS-domain of BraA.RGS1 (C-terminal cytosolic domain containing the RGS-box), GAL4 activation domain fusion (domain or fragment)”: the Km of steady state Pi release (ENZchek) from 1 μM GTP-loaded BraA.Gα1 with 0.1–2.0 μM purified RGS-domain of BraA.RGS1 (His-tagged proteins from E. coli) amounted to 0.244.
